Experimental data taken from the supplement of paper PMC9112550, “Optimization of the antimicrobial peptide Bac7 by deep mutational scanning” (BMC Biology, 2022).

What follows are sequences tested on Escherichia coli TOP10 (assay: shrunken log2 fold change of peptide-encoding DNA abundance (4.5 h post-induction vs induction); higher = less antimicrobial activity (less host growth inhibition)). Conditions: time post-induction: 4.5 h; library: site-saturation at positions 5, 18, 19, 20.
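Note: peptides expressed intracellularly from a pBAD plasmid library in pooled LB shake-flask culture, induced with 0.3% L-arabinose, DNA abundance read by NGS, three biological replicates, DESeq2 with apeglm shrinkage.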

Row | Sequence | shrunken log2 fold change
1 | RRIRERPPRLPRPRPRPEVGPRP | 0.0848
2 | RRIRERPPRLPRPRPRPEVNPRP | -0.0365
3 | RRIRERPPRLPRPRPRPEYFPRP | -0.0105
4 | RRIRERPPRLPRPRPRPEYTPRP | -0.313
5 | RRIRERPPRLPRPRPRPFAEPRP | -0.326
6 | RRIRERPPRLPRPRPRPFAPPRP | 0.117
7 | RRIRERPPRLPRPRPRPFCSPRP | -0.204
8 | RRIRERPPRLPRPRPRPFDLPRP | -0.504
9 | RRIRERPPRLPRPRPRPFDNPRP | 3.45
10 | RRIRERPPRLPRPRPRPFEKPRP | 0.00177
11 | RRIRERPPRLPRPRPRPFFRPRP | -0.112
12 | RRIRERPPRLPRPRPRPFGGPRP | -0.0945
13 | RRIRERPPRLPRPRPRPFGKPRP | -0.01
14 | RRIRERPPRLPRPRPRPFGLPRP | -0.0181
15 | RRIRERPPRLPRPRPRPFGTPRP | -0.135
16 | RRIRERPPRLPRPRPRPFHFPRP | -0.787
17 | RRIRERPPRLPRPRPRPFIFPRP | -0.476
18 | RRIRERPPRLPRPRPRPFLHPRP | -0.332
19 | RRIRERPPRLPRPRPRPFLIPRP | -0.728
20 | RRIRERPPRLPRPRPRPFLNPRP | -0.0647
21 | RRIRERPPRLPRPRPRPFLTPRP | -0.506
22 | RRIRERPPRLPRPRPRPFLVPRP | -0.119
23 | RRIRERPPRLPRPRPRPFMTPRP | -0.438
24 | RRIRERPPRLPRPRPRPFPEPRP | -0.426
25 | RRIRERPPRLPRPRPRPFPGPRP | -0.0108

Row | Sequence | shrunken log2 fold change
26 | RRIRERPPRLPRPRPRPFRIPRP | -0.367
27 | RRIRERPPRLPRPRPRPFRSPRP | -0.0241
28 | RRIRERPPRLPRPRPRPFSEPRP | 0.0188
29 | RRIRERPPRLPRPRPRPFSFPRP | 0.122
30 | RRIRERPPRLPRPRPRPFSSPRP | -0.0152
31 | RRIRERPPRLPRPRPRPFVGPRP | -0.143
32 | RRIRERPPRLPRPRPRPFVMPRP | -0.345
33 | RRIRERPPRLPRPRPRPFVYPRP | -0.123
34 | RRIRERPPRLPRPRPRPFYPPRP | -0.834
35 | RRIRERPPRLPRPRPRPGCIPRP | -1.12
36 | RRIRERPPRLPRPRPRPGCKPRP | 0.0591
37 | RRIRERPPRLPRPRPRPGCMPRP | -0.00389
38 | RRIRERPPRLPRPRPRPGDGPRP | 0.389
39 | RRIRERPPRLPRPRPRPGEAPRP | 0.139
40 | RRIRERPPRLPRPRPRPGERPRP | 0.104
41 | RRIRERPPRLPRPRPRPGFNPRP | 0.0108
42 | RRIRERPPRLPRPRPRPGFRPRP | 0.231
43 | RRIRERPPRLPRPRPRPGHDPRP | -0.449
44 | RRIRERPPRLPRPRPRPGHHPRP | -0.261
45 | RRIRERPPRLPRPRPRPGIFPRP | 0.099
46 | RRIRERPPRLPRPRPRPGLEPRP | -0.114
47 | RRIRERPPRLPRPRPRPGLSPRP | -0.113
48 | RRIRERPPRLPRPRPRPGNQPRP | -0.00399
49 | RRIRERPPRLPRPRPRPGPKPRP | -0.00801
50 | RRIRERPPRLPRPRPRPGPPPRP | 0.317

Row | Sequence | shrunken log2 fold change
51 | RRIRERPPRLPRPRPRPGQGPRP | -0.132
52 | RRIRERPPRLPRPRPRPGQKPRP | 0.2
53 | RRIRERPPRLPRPRPRPGQTPRP | -0.0328
54 | RRIRERPPRLPRPRPRPGRKPRP | -0.12
55 | RRIRERPPRLPRPRPRPGRQPRP | 0.0676
56 | RRIRERPPRLPRPRPRPGSIPRP | 0.0371
57 | RRIRERPPRLPRPRPRPGTIPRP | -0.386
58 | RRIRERPPRLPRPRPRPGWHPRP | 0.027
59 | RRIRERPPRLPRPRPRPGWLPRP | 0.256
60 | RRIRERPPRLPRPRPRPGYHPRP | -0.502
61 | RRIRERPPRLPRPRPRPGYRPRP | -0.408
62 | RRIRERPPRLPRPRPRPGYTPRP | 0.0628
63 | RRIRERPPRLPRPRPRPHCNPRP | -1.07
64 | RRIRERPPRLPRPRPRPHCRPRP | -0.168
65 | RRIRERPPRLPRPRPRPHDAPRP | -0.437
66 | RRIRERPPRLPRPRPRPHDMPRP | -0.0911
67 | RRIRERPPRLPRPRPRPHEDPRP | 0.111
68 | RRIRERPPRLPRPRPRPHFDPRP | -0.14
69 | RRIRERPPRLPRPRPRPHFMPRP | -0.221
70 | RRIRERPPRLPRPRPRPHGHPRP | 0.0257
71 | RRIRERPPRLPRPRPRPHHIPRP | -0.0669
72 | RRIRERPPRLPRPRPRPHHKPRP | -0.449
73 | RRIRERPPRLPRPRPRPHIPPRP | -0.682
74 | RRIRERPPRLPRPRPRPHIQPRP | -0.705
75 | RRIRERPPRLPRPRPRPHLMPRP | 1.19
